Measurements taken from the supplement of paper PMC10567573.
± gives the standard deviation.

Assay: protein stability index of a GFP-peptide fusion (GPS, HEK-293T) (PSI 1-6); higher = more stable
Conditions: c terminus: a fixed tail appended
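Further: 24-mer peptide tiles fused after GFP, lentivirally expressed, FACS-sorted into six equal bins by GFP/DsRed ratio, decoded by Illumina sequencing, PSI is the read-weighted mean bin number.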

| Sequence | protein stability index (treatment: DMSO) | protein stability index (treatment: MLN4924 1 uM, 8 h) |
| --- | --- | --- |
| GISVPSGLFVPSLLCGAAFGRLVA [CLCN6] | 2.62 ± 1.2 | 2.51 ± 0.97 |
| KLTLENFYSNLILQHEERETRQKK [STK38L] | 3.24 ± 0.39 | 3.29 ± 0.46 |
| IRLTQYIDGQGRPRTSQSEETRVW [CAMK2B] | 3.13 ± 0.3 | 3.16 ± 0.14 |
| VSTQRSQDHFHVFVGDLSPEITTE [TIA1] | 3.98 ± 0.29 | 3.92 ± 0.41 |
| FLPFLLCAVLLSAVQAQAGWLQHD [FADS1] | 2.73 ± 0.23 | 3.02 ± 0.66 |
| MQAAEVFSQKHFPEVVQHEEFILL [KLHL12] | 2.17 ± 0.48 | 2.44 ± 0.73 |
| AEAGHVDICHMLVQFCRLGSPRSR [EHMT1] | 2.3 ± 0.17 | 2.37 ± 0.34 |
| KRQVPTEQARAYAEKNCMTFFEVS [RAB40C] | 3.16 ± 0.36 | 3.29 ± 0.37 |
| LYGLGSGSSYVQNGTGNAYEEEAN [CNOT7] | 4.74 ± 0.2 | 4.84 ± 0.24 |
| MLTVMTKYQANITETQRLGLAMAL [FANCE] | 2.52 ± 0.43 | 2.48 ± 0.25 |
| SIPKLKLTRPVPAGADLPPPKIRL [PWWP2B] | 3.45 ± 0.23 | 3.63 ± 0.35 |
| CTEGPIDLVFVIDGSKSLGEENFE [MATN2] | 2.72 ± 0.29 | 2.52 ± 0.59 |
| QSAFLHLPLPEQIHKASATIIEPA [INTS4] | 3.45 ± 0.31 | 3.82 ± 0.1 |
| EEQVILTEKDLLEDGFGEHPFYHC [SAT1] | 3.95 ± 0.24 | 4.15 ± 0.42 |
| ELRRNHCFQDFKEEKPQENKTWRE [ELOA2] | 3.31 ± 0.31 | 3.47 ± 0.41 |
| PGTSFKDSTKTAFHRSQTLSYRNG [EFHC1] | 3.68 ± 0.1 | 3.89 ± 0.11 |
| RELREVRRVPPRFSIPPTNHEIMP [PTPRD] | 3.74 ± 0.093 | 3.88 ± 0.14 |
| APFLSQADDPDDGPVPGTPGLPGS [SPNS1] | 5.55 ± 0.34 | 5.43 ± 0.21 |
| ISLINTRMLFWACSTNKPEGYRVS [FAF2] | 2.5 ± 0.61 | 2.35 ± 0.39 |
| ARPSSASIRDANLYVSGLPKTMSQ [ELAVL3] | 4.08 ± 0.61 | 3.81 ± 0.098 |
| TSDDNLLKNIELFDKLALRFHGRL [KCTD13] | 2.48 ± 0.2 | 2.46 ± 0.4 |
| ISEEGHHYLIFDLVTGGELFEDIV [CAMK2A] | 2.47 ± 0.62 | 2.13 ± 0.29 |
| RRIHSLPQKLLGCSPALKRSHSDS [CDC25A] | 4.89 ± 0.29 | 5.21 ± 0.078 |

| Sequence | protein stability index (treatment: DMSO) | protein stability index (treatment: MLN4924 1 uM, 8 h) |
| --- | --- | --- |
| AYVLSKYQYFVCPVEYRSDVNSFV [CDS1] | 2.6 ± 0.46 | 2.68 ± 0.75 |
| KKTVHYYAELGQCSVFPATDAPEQ [PLK2] | 3.6 ± 0.27 | 3.64 ± 0.31 |
| IVIADVKLVADFQRYILYWRKRFT [ZNF277] | 2.48 ± 0.57 | 2.48 ± 0.46 |
| LNRRNGSLRIALSEHLKQRREVAK [EDNRA] | 3.27 ± 0.45 | 3.25 ± 0.27 |
| TDIKDESCCMTEEIFGPVTCVVPF [ALDH8A1] | 3.53 ± 0.23 | 3.48 ± 0.3 |
| AIAWCLRNEGVSSVLLGASNADQL [KCNAB2] | 2.23 ± 0.27 | 2.1 ± 0.13 |
| TKLLSGSYDCTVKLWDPVDGSVVR [WDR88] | 3.1 ± 0.33 | 3.19 ± 0.26 |
| FLTILPEELQSWVRGHHPKSGEEA [ZNF232] | 3.7 ± 0.18 | 3.56 ± 0.35 |
| CTGLKKAHRTEFYRNLTHNPPSDF [STK38L] | 2.85 ± 0.09 | 2.87 ± 0.28 |
| LCQHFEAVHSGTPVTNNLLEKCKT [SPACA9] | 4.14 ± 0.13 | 4.19 ± 0.17 |
| GSESYKSSAGSAEQTAPGDSTGYM [EHMT1] | 5.16 ± 0.25 | 5.21 ± 0.3 |
| KKREKQREQMEQMKQRIAEENIMK [FAM50A] | 4.8 ± 0.18 | 4.78 ± 0.41 |
| VLEYRRTNFEGPPRLKEDQPWMVI [FSD1] | 2.12 ± 0.44 | 2.35 ± 0.39 |
| LDKLLQGGIETGSITEMFGEFRTG [RAD51] | 3.07 ± 0.26 | 3.06 ± 0.28 |
| AAANCHFHCIETLVTTGANVNETD [ANKRD44] | 3.99 ± 0.22 | 4.08 ± 0.15 |
| SIKPEASQMPPPAGGTSDDPEPSG [SCNN1D] | 5.43 ± 0.15 | 5.57 ± 0.28 |
| LIIQAGIKEVIFMSDKYHDSDEAT [DCTD] | 2.16 ± 0.28 | 2.08 ± 0.089 |
| SGMGGRAPVSRGRDSYGGPPRREP [RBMX] | 4.45 ± 0.28 | 4.61 ± 0.29 |
| PPHPAPAPQHPAASALRTRMTGGR [DYRK1B] | 4.86 ± 0.23 | 4.9 ± 0.13 |
| DEKYSIEPSWECKFDHIEVRDGPF [NETO1] | 3.78 ± 0.35 | 3.9 ± 0.17 |
| LLEKDYFGLTYRDAENQKNWLDPA [EPB41L3] | 3.1 ± 0.29 | 3.48 ± 0.29 |
| RKVAGMAKPNMIISVNGDVITIKS [FABP4] | 2.37 ± 0.66 | 2.43 ± 0.26 |
